Assay results taken from patent US20050276799A1 (PDL BIOPHARMA, published 2005).
Changes are numbered by the printed parent chain. Names and notes keep the numbering of the source. Read-outs that look alike come from different tables or passages of the source.

Columns and labels:
[1] = biological target: T1, recombinant, GPI-linked rhesus FcRn on cell line NS0 RhFcRn, clone R-3 (rhesus, UniProt H9Z6D2 24-297; Q6V7J5 21-119, GPI-linked); assay: IC50 of wild-type / IC50 of this antibody, same assay
T1 construct: Expressed from pDL410 on the surface of NS0 cells; not shown: human c-myc decapeptide flanked by linker peptides, then GPI linkage signal of human decay accelerating factor (vector p)

[2] = biological target: T2, recombinant, GPI-linked human FcRn on cell line NS0 HuFcRn (memb), clone 7-3 (human, UniProt P55899 24-297; P61769 21-119); assay: as above
T2 construct: Expressed from pDL208 on the surface of NS0 cells; also called human neonatal Fc receptor; not shown: human c-myc decapeptide flanked by linker peptides, then GPI linkage signal of human decay accelerating factor (vector p)

[3] = biological target: T2, recombinant, GPI-linked human FcRn on …; assay: as above; remark: listed apart in the source
[4] = biological target: T1, recombinant, GPI-linked rhesus FcRn on …; assay: as above; remark: listed apart in the source
[5] = biological target: T1, recombinant, GPI-linked rhesus FcRn on …; assay: competition FACS vs biotinylated human IgG on NS0 cells expressing rhesus FcRn, FBB pH 6.0
[6] = biological target: T2, recombinant, GPI-linked human FcRn on …; assay: competition FACS vs biotinylated human IgG on NS0 cells expressing human FcRn, FBB pH 6.0
[7] = biological target: T2, recombinant, GPI-linked human FcRn on …; assay: as above; remark: listed apart in the source
[8] = biological target: T1, recombinant, GPI-linked rhesus FcRn on …; assay: competition FACS vs biotinylated human IgG on NS0 cells expressing rhesus FcRn, FBB pH 6.0; remark: listed apart in the source
[9] = biological target: T2, recombinant, GPI-linked human FcRn on …; assay: IC50 of wild-type / IC50 of this antibody, same assay; remark: listed apart in the source
[10] = biological target: T2, recombinant, GPI-linked human FcRn on …; assay: competition FACS vs biotinylated human IgG on NS0 cells expressing human FcRn, FBB pH 6.0; remark: listed apart in the source
[11] = biological target: T2, recombinant, GPI-linked human FcRn on …; assay: IC50 of wild-type / IC50 of this antibody, same assay; remark: listed apart in the source
[12] = biological target: T2, recombinant, GPI-linked human FcRn on …; assay: competition FACS vs biotinylated human IgG on NS0 cells expressing human FcRn, FBB pH 6.0; remark: listed apart in the source
[13] = biological target: T2, recombinant, GPI-linked human FcRn on …; assay: pH-dependent binding and release FACS on NS0 cells expressing human FcRn (FIG. 15B)
[14] = biological target: T2, recombinant, GPI-linked human FcRn on …; assay: IC50 of wild-type / IC50 of this antibody, same assay; remark: listed apart in the source
[15] = biological target: T2, recombinant, GPI-linked human FcRn on …; assay: competition FACS vs biotinylated human IgG on NS0 cells expressing human FcRn, FBB pH 6.0; remark: listed apart in the source

B1: Hu1D10-IgG3 wild-type (antibody)
heavy: QVQLQESGPGLVKPSETLSLTCTVSGFSLTNYGVHWVRQSPGKGLEWIGVKWSGGSTEYNAAFISRLTISKDTSKNQVSLKLNSLTAADTAVYYCARNDRYAMDYWGQGTLVTVSSASTKGPSVFPLAPCSRSTSGGTAALGCLVKDYFPEPVTVSWNSGALTSGVHTFPAVLQSSGLYSLSSVVTVPSSSLGTQTYTCNVNHKPSNTKVDKRVELKTPLGDTTHTCPRCPEPKSCDTPPPCPRCPEPKSCDTPPPCPRCPEPKSCDTPPPCPRCPAPELLGGPSVFLFPPKPKDTLMISRTPEVTCVVVDVSHEDPEVQFKWYVDGVEVHNAKTKLREEQYNSTFRVVSVLTVLHQDWLNGKEYKCKVSNKALPAPIEKTISKAKGQPREPQVYTLPPSREEMTKNQVSLTCLVKGFYPSDIAVEWESNGQPENNYNTTPPMLDSDGSFFLYSKLTVDKSRWQQGNIFSCSVMHEALHNRYTQKSLSLSPGK
light: DIQMTQSPSSLSASVGDRVTITCRASENIYSYLAWYQQKPGKAPKLLVSNAKTLAEGVPSRFSGSGSGKQFTLTISSLQPEDFATYYCQHHYGNSYPFGQGTKLEIKRTVAAPSVFIFPPSDEQLKSGTASVVCLLNNFYPREAKVQWKVDNALQSGNSQESVTEQDSKDSTYSLSSTLTLSKADYEKHKVYACEVTHQGLSSPVTKSFNRGEC
- Relative Binding [1]: 1 ratio
- Relative Binding [2]: 1 ratio

B2: Hu1D10-IgG4 M428L (antibody)
heavy: not shown
light: B1 light
- Relative Binding [3]: 15 ratio
- Relative Binding [4]: 15 ratio
- IC50 [5]: 6.64 µg/mL
- IC50 [6]: 5.03 µg/mL

B3: Hu1D10-IgG4 T250Q/M428L (antibody)
heavy: not shown
light: B1 light
- Relative Binding [3]: 71 ratio
- Relative Binding [4]: 77 ratio
- IC50 [5]: 1.27 µg/mL
- IC50 [6]: 1.07 µg/mL

B4: Hu1D10-IgG3 M428L (antibody)
heavy: B1 heavy with M474L
light: B1 light
- Relative Binding [1]: 4.6 ratio
- IC50 [7]: 2.29 µg/mL
- IC50 [8]: 3.03 µg/mL
- Relative Binding [2]: 6.3 ratio

B5: M200-IgG4 wild-type (volociximab) (antibody)
heavy: not shown
light: QIVLTQSPAIMSASLGERVTMTCTASSSVSSNYLHWYQQKPGSAPNLWIYSTSNLASGVPARFSGSGSGTSYSLTISSMEAEDAATYYCHQYLRSPPTFGGGTKLEIKRTVAAPSVFIFPPSDEQLKSGTASVVCLLNNFYPREAKVQWKVDNALQSGNSQESVTEQDSKDSTYSLSSTLTLSKADYEKHKVYACEVTHQGLSSPVTKSFNRGEC
notes: Chimeric anti-α5β1 integrin; also called M200-IgG4 WT
- Relative Binding [9]: 1 ratio
- IC50 [10]: 34.7 µg/mL

B6: M200-IgG4 T250Q/M428L (antibody)
heavy: not shown
light: B5 light
- Relative Binding [9]: 35 ratio
- IC50 [10]: 1 µg/mL

B7: HuM291-IgG2M3 wild-type (visilizumab) (antibody)
heavy: QVQLVQSGAEVKKPGASVKVSCKASGYTFISYTMHWVRQAPGQGLEWMGYINPRSGYTHYNQKLKDKATLTADKSASTAYMELSSLRSEDTAVYYCARSAYYDYDGFAYWGQGTLVTVSSASTKGPSVFPLAPCSRSTSESTAALGCLVKDYFPEPVTVSWNSGALTSGVHTFPAVLQSSGLYSLSSVVTVPSSNFGTQTYTCNVDHKPSNTKVDKTVERKCCVECPPCPAPPAAAPSVFLFPPKPKDTLMISRTPEVTCVVVDVSHEDPEVQFNWYVDGVEVHNAKTKPREEQFNSTFRVVSVLTVVHQDWLNGKEYKCKVSNKGLPAPIEKTISKTKGQPREPQVYTLPPSREEMTKNQVSLTCLVKGFYPSDIAVEWESNGQPENNYKTTPPMLDSDGSFFLYSKLTVDKSRWQQGNVFSCSVMHEALHNHYTQKSLSLSPSK
light: DIQMTQSPSSLSASVGDRVTITCSASSSVSYMNWYQQKPGKAPKRLIYDTSKLASGVPSRFSGSGSGTDFTLTISSLQPEDFATYYCQQWSSNPPTFGGGTKVEIKRTVAAPSVFIFPPSDEQLKSGTASVVCLLNNFYPREAKVQWKVDNALQSGNSQESVTEQDSKDSTYSLSSTLTLSKADYEKHKVYACEVTHQGLSSPVTKSFNRGEC
notes: Humanized anti-CD3; also called HuM291-IgG2M3 WT; Nuvion
- Relative Binding [11]: 1 ratio
- IC50 [12]: 42.2 µg/mL

B8: HuM291-IgG2M3 T250Q/M428L (antibody)
heavy: B7 heavy with T249Q, M427L
light: B7 light
- Relative Binding [11]: 42 ratio
- IC50 [12]: 0.994 µg/mL

B9: OST577-IgG1 T250D (antibody)
heavy: not shown
light: SYVLTQPPSVSVAPGQTARITCGGDNIGSKSVNWFQQKPGQAPVLVVYDDNERPSGISERFSGSNSGNTATLTISRVEAGDEADYYCQVWDSSSDHVVFGGGTKLTVLGQPKAAPSVTLFPPSSEELQANKATLVCLISDFYPGAVTVAWKADSSPVKAGVETTTPSKQSNNKYAASSYLSLTPEQWKSHRSYSCQVTHEGSTVEKTVAPTECS
- binding result [13]: binds

B10: Dac-IgG2M3 T250Q/M428L (antibody)
heavy: QVQLVQSGAEVKKPGSSVKVSCKASGYTFTSYRMHWVRQAPGQGLEWIGYINPSTGYTEYNQKFKDKATITADESTNTAYMELSSLRSEDTAVYYCARGGGVFDYWGQGTLVTVSSASTKGPSVFPLAPCSRSTSESTAALGCLVKDYFPEPVTVSWNSGALTSGVHTFPAVLQSSGLYSLSSVVTVPSSNFGTQTYTCNVDHKPSNTKVDKTVERKCCVECPPCPAPPAAAPSVFLFPPKPKDQLMISRTPEVTCVVVDVSHEDPEVQFNWYVDGVEVHNAKTKPREEQFNSTFRVVSVLTVVHQDWLNGKEYKCKVSNKGLPAPIEKTISKTKGQPREPQVYTLPPSREEMTKNQVSLTCLVKGFYPSDIAVEWESNGQPENNYKTTPPMLDSDGSFFLYSKLTVDKSRWQQGNVFSCSVLHEALHNHYTQKSLSLSPGK
light: DIQMTQSPSTLSASVGDRVTITCSASSSISYMHWYQQKPGKAPKLLIYTTSNLASGVPARFSGSGSGTEFTLTISSLQPDDFATYYCHQRSTYPLTFGQGTKVEVKRTVAAPSVFIFPPSDEQLKSGTASVVCLLNNFYPREAKVQWKVDNALQSGNSQESVTEQDSKDSTYSLSSTLTLSKADYEKHKVYACEVTHQGLSSPVTKSFNRGEC
- Relative Binding [14]: 18 ratio
- IC50 [15]: 4.02 µg/mL
